Assay results from patent US20250296971A1, “GASTRIC INHIBITORY PEPTIDE RECEPTOR LIGANDS” (priority 2021, published 2025).
*1 amine or outer side, *2 acyl side, *3 side chain or, on linkers, in order; H or OH if unused. Bridges are numbered along the chain shown (N, C = ends). Primed or numbered codes have the meaning given here. [ ]: non-standard residue; d: D form. The star is where a group is joined. TBMB(SCH2CH2NH-DOTA) = O=C(O)CN1CCN(CC(=O)O)CCN(CC(=O)NCCSCc2cc(C[*:1])cc(C[*:2])c2)CCN(CC(=O)O)CC1; Ttds = 1,13-diamino-4,7,10-trioxatridecan-succinamic acid, NCCCOCCOCCOCCCNC(=O)CCC(=O)*; DOTA(In) = O=C1CN2CCN3CCN(CC(=O)*)CCN(CC2)CC(=O)[O][In]([O]1)[O]C(=O)C3; DOTA(Lu) = O=C1CN2CCN3CCN(CC(=O)*)CCN(CC2)CC(=O)[O][Lu]([O]1)[O]C(=O)C3; NH(1-deoxy-D-glucityl) = OC[C@@H](O)[C@@H](O)[C@H](O)[C@@H](O)CN*; APAc″ = 4-amino-1-carboxymethylpiperidine, NC1CCN(CC(=O)*)CC1; dE(AGLU) = D-glutamic acid bearing 1-amino-1-deoxy-D-glucitol; Pro(trans-4-NH2) = O=C([C@@H]1C[C@@H](N[*:3])CN1[*:1])[*:2]; DOTA = O=C(O)CN1CCN(CC(=O)O)CCN(CC(=O)*)CCN(CC(=O)O)CC1; 3MeBn = 3-methyl-benzylidene (derived from 1,3-xylene); 2Lut = 2,6-lutidylidene bridge between two thiols; N(CH2CH2CO)Gly = O=C(CN(CCC(=O)[*:3])[*:1])[*:2]; Trp(5-Br) = N[C@@H](Cc1c[nH]c2ccc(Br)cc12)C(=O)O; Trp(5-Cl) = N[C@@H](Cc1c[nH]c2ccc(Cl)cc12)C(=O)O; Pyridine(2,6-diCH2) = c1cc(C[*:1])nc(C[*:2])c1; APAc = 4-amino-1-carboxymethylpiperidine; mXylylene = c1cc(C[*:1])cc(C[*:2])c1; LuDOTA = DOTA Lutetium(III) complex; Glutaryl = O=C(CCCC(=O)[*:2])[*:1]; AGLU = 1-amino-1-deoxy-D-glucitol; Hyp = O=C(O)[C@@H]1C[C@@H](O)CN1; Cysteamide = C(CS[*:3])N[*:1]; Suc = O=C(CCC(=O)[*:2])[*:1]; ZnDOTA = DOTA zinc complex; hSer = N[C@@H](CCO)C(=O)O; αMeS = C[C@](N)(CO)C(=O)O; Api = NC1(C(=O)O)CCNCC1; Thp = NC1(C(=O)O)CCOCC1; Aib = CC(C)(N)C(=O)O; Sar = CNCC(=O)O

B1: Ac-Asn-Trp-5Clw-Hyp-Glu-leu-[Cys(2Lut)-Thp-Leu-Ile-Cys]-NH2 (peptide)
peptide: Ac-NW[Trp(5-Cl)][Hyp]E[dL]C[Thp]LIC-NH2
modifications: linker 7-11 via Pyridine(2,6-diCH2)
SMILES: CC[C@H](C)[C@@H]1NC(=O)[C@H](CC(C)C)NC(=O)C2(CCOCC2)NC(=O)[C@@H](NC(=O)[C@@H](CC(C)C)NC(=O)[C@H](CCC(=O)O)NC(=O)[C@@H]2C[C@@H](O)CN2C(=O)[C@H](Cc2c[nH]c3ccc(Cl)cc23)NC(=O)[C@H](Cc2c[nH]c3ccccc23)NC(=O)[C@H](CC(N)=O)NC(C)=O)CSCc2cccc(n2)CSC[C@@H](C(N)=O)NC1=O
B2: Ac-Asp-Trp-5Clw-Tap(AGLU-Glutar)-Glu-leu-[Cys(2Lut)-Thp-Leu-Ile-Cys]-NH2 (peptide)
peptide: Ac-DW[Trp(5-Cl)][Pro(trans-4-NH2)]E[dL]C[Thp]LIC-NH2
modifications: linker 7-11 via Pyridine(2,6-diCH2); not fully specified (residue 4); printed as Ac-Asp-Trp-5Clw-Tap(AGLU-Glutar)-Glu-leu-[Cys(2Lut)-Thp-Leu-Ile-Cys]-NH2
B3: AGLU-Glutar-Asp-Trp-5Brw-Tap-Glu-leu-[Cys(2Lut)-Apc(DOTA)-Leu-Ile-Cys]-APAc-glu(AGLU)-NH2 (peptide)
peptide: DWXXEXCXLIC
modifications: N-term AGLU-Glutar; 5Brw; Tap; leu (D-Leu); thioether cycle [Cys(2Lut)..Cys]; Apc(DOTA); C-term APAc-glu(AGLU)-NH2

Molecular target: human Gastric Inhibitory Peptide Receptor (human) (UniProt P48546)
Assay: FACS competition with GIP-057 on CHO-K1-hGIPR cells; pIC50 category A: >8.0

human Gastric Inhibitory Peptide Receptor (human), sequence (P48546 22-466 limits assumed): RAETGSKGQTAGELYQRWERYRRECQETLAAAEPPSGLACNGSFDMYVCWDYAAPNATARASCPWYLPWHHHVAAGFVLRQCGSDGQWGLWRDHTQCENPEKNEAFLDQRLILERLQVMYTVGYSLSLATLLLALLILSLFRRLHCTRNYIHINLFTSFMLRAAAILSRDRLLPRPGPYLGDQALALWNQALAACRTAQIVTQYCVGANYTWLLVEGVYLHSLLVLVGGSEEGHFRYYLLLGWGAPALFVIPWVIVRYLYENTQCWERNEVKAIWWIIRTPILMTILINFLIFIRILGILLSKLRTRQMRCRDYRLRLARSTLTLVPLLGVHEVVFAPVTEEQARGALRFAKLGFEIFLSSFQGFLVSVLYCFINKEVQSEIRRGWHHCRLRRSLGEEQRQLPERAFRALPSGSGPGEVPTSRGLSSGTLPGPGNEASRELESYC

Row | Binder | pIC50 [pic50]
1 | Ac-DW[Trp(5-Cl)][Hyp]E[dL]C[Thp]LIC-NH2 (linker 7-11 via TBMB(SCH2CH2NH-DOTA)) [Ac-Asp-Trp-5Clw-Hyp-Glu-leu-[Cys(tMeBn(DOTA-AET))-Thp-Leu-Ile-Cys]-NH2] | > 8
2 | {LuDOTA-APAc″}-DW[Trp(5-Cl)][Hyp]E[dL]C[Thp]LI[Cysteamide] (linker 7-11 via Pyridine(2,6-diCH2)) [LuDOTA-APAc-Asp-Trp-5Clw-Hyp-Glu-leu-[Cys(2Lut)-Thp-Leu-Ile-AET]] | > 8
3 | Ac-DW[Trp(5-Cl)][N(CH2CH2CO)Gly](NH(1-deoxy-D-glucityl))E[dL]C[Thp]LIC-NH2 (linker 7-11 via Pyridine(2,6-diCH2)) [Ac-Asp-Trp-5Clw-Nglu(AGLU)-Glu-leu-[Cys(2Lut)-Thp-Leu-Ile-Cys]-NH2] | > 8
4 | {DOTA(In)-Ttds}-DW[Trp(5-Cl)][Sar]E[dL]C[Aib]LI[Cysteamide] (linker 7-11 via 3MeBn; also: DOTA as indium complex (InDOTA)) [InDOTA-Ttds-Asp-Trp-5Clw-Nmg-Glu-leu-[Cys(3MeBn)-Aib-Leu-Ile-AET]] | > 8
5 | {LuDOTA-Ttds}-DW[Trp(5-Cl)]PE[dL]C[Aib]LI[Cysteamide] (linker 7-11 via Pyridine(2,6-diCH2)) [LuDOTA-Ttds-Asp-Trp-5Clw-Pro-Glu-leu-[Cys(2Lut)-Aib-Leu-Ile-AET]] | > 8
6 | {LuDOTA-Ttds}-DW[Trp(5-Cl)][Sar]E[dL]C[Aib]LI[Cysteamide] (linker 7-11 via mXylylene) [LuDOTA-Ttds-Asp-Trp-5Clw-Nmg-Glu-leu-[Cys(3MeBn)-Aib-Leu-Ile-AET]] | > 8
7 | {DOTA(In)-Ttds}-DW[Trp(5-Cl)]PE[dL]C[αMeS]LI[Cysteamide] (linker 7-11 via 3MeBn; also: DOTA as indium complex (InDOTA)) [InDOTA-Ttds-Asp-Trp-5Clw-Pro-Glu-leu-[Cys(3MeBn)-Ams-Leu-Ile-AET]] | > 8
8 | Suc-W[Trp(5-Cl)][Hyp]E[dL]C[Api](DOTA(Lu))LI[Cysteamide] (linker 6-10 via 2Lut; also: Lu complex of DOTA) [HO-Succinyl-Trp-5Clw-Hyp-Glu-leu-[Cys(2Lut)-Apc(LuDOTA)-Leu-Ile-AET]] | > 8
9 | B1 | > 8
10 | {LuDOTA-Ttds}-DW[Trp(5-Cl)]PE[dL]C[Thp]LI[Cysteamide] (linker 7-11 via mXylylene) [LuDOTA-Ttds-Asp-Trp-5Clw-Pro-Glu-leu-[Cys(3MeBn)-Thp-Leu-Ile-AET]] | > 8
11 | B2 | > 8
12 | B3 | > 8
13 | {AGLU-Glutaryl}-DW[Trp(5-Cl)][Hyp]E[dL]C[Api](ZnDOTA)LI[Cysteamide] (linker 7-11 via Pyridine(2,6-diCH2)) [AGLU-Glutar-Asp-Trp-5Clw-Hyp-Glu-leu-[Cys(2Lut)-Apc(ZnDOTA)-Leu-Ile-AET]] | > 8
14 | {AGLU-Glutaryl}-[hSer]W[Trp(5-Br)][Pro(trans-4-NH2)]E[dL]C[Api](DOTA)LIC-{APAc-dE(AGLU)-NH2} (linker 7-11 via Pyridine(2,6-diCH2)) [AGLU-Glutar-Hse-Trp-5Brw-Tap-Glu-leu-[Cys(2Lut)-Apc(DOTA)-Leu-Ile-Cys]-APAc-glu(AGLU)-NH2] | > 8
15 | {AGLU-Glutaryl}-DW[Trp(5-Cl)][Hyp]E[dL]C[Thp]LIC-{APAc-dE(AGLU)-NH2} (linker 7-11 via Pyridine(2,6-diCH2)) [AGLU-Glutar-Asp-Trp-5Clw-Hyp-Glu-leu-[Cys(2Lut)-Thp-Leu-Ile-Cys]-APAc-glu(AGLU)-NH2] | > 8
16 | {AGLU-Glutaryl-APAc}-DW[Trp(5-Br)][Pro(trans-4-NH2)]E[dL]C[Api](DOTA)LIC-{APAc-dE(AGLU)-NH2} (linker 7-11 via Pyridine(2,6-diCH2)) [AGLU-Glutar-APAc-Asp-Trp-5Brw-Tap-Glu-leu-[Cys(2Lut)-Apc(DOTA)-Leu-Ile-Cys]-APAc-glu(AGLU)-NH2] | > 8
17 | Suc-W[Trp(5-Cl)][Hyp]E[dL]C[Thp]LIC-{APAc-Lys(LuDOTA)-NH2} (linker 6-10 via 2Lut; also: Lu complex of DOTA) [HO-Succinyl-Trp-5Clw-Hyp-Glu-leu-[Cys(2Lut)-Thp-Leu-Ile-Cys]-APAc-Lys(LuDOTA)-NH2] | > 8
18 | Suc-W[Trp(5-Cl)][Hyp]E[dL]C[Thp]LIC-{APAc-Lys(InDOTA)-NH2} (linker 6-10 via 2Lut; also: In complex of DOTA) [HO-Succinyl-Trp-5Clw-Hyp-Glu-leu-[Cys(2Lut)-Thp-Leu-Ile-Cys]-APAc-Lys(InDOTA)-NH2] | > 8
